These results are taken from US20140289906A1, “Compositions Having Dicamba Decarboxylase Activity and Methods of Use” (priority 2013, published 2014).

The data set in a line: 14C assay: 14CO2 capture from [14C]-carboxyl-labeled dicamba with IPTG-induced recombinant E. coli cells. Conditions: for Dicamba Decarboxylase Activity: IPTG-induced recombinant E. coli cells, 14CO2 from [14C]-carboxyl-labeled dicamba; for Enzymatic Detection level: dicamba decarboxylation activity.

B1: 7 (protein, listed as Legionella pneumophila)
chain: MAIVDFETHFITEACIDYLTQRQEVPKLVPELNGAYTMCFTPDVSLFHTSALMEELLSLNEQRLAIMDQAGVTIQVLSLTTINGIDSCPGDENKSTALAREVNDQLYSAIQRHPERFKGFASISPYDVKEGVKELERAISQLGFVGWLTHSNFGEDNYLDDKTYWPLLEAAEGLNIPIYLHPNVPIMREFGKYGFALGGSALGFEFDTALCLMRMILGGVFDAFPKLKIMLGHLGETMPFLMERLDHLYRIPDLKAYRPSIQRIPSEVLRQNVYITTSGRFFVPALRYVLEVMGEDRVLFASDYPMESLLDATRFIQDSDLSNQTKQKIFSINAKNLNLI
Regarding B1, the “Dicamba Decarboxylase Activity” value is “No” and the “Enzymatic Detection level” value is recorded as “No”.

B2: 85 (protein, listed as Maritimibacter alkaliphilus)
chain: MAADRKPGLVSVEEGFMIPEVVAELSRIAGGVPSMKSGPIAGPFMDDLLDIGKGRVARMDADGVAVQILALAAPGVQKFDPDTALALSRLTNDRLAEAIAAHPARFGGLAAAPPQAAREGAKELDRAITTLGLNGLIVNSHTNDLYLDDPSFWPLLEAAEALDVPVYLHPREPAAGIEGGLMAMTGFTVGWAYAVETGTHLLRMIAAGVFDRFPRLRIVLGHLGEMIPFMLDRIDNRYPFEMGVTGAKPLPRKPSDYFRDHVTVATSGMNFNAPMRAAIEVLGADKVMFAADYPMERQDEEVAKFAALDLTPDERKRIGEDNARRVFGL
As for B2, the “Dicamba Decarboxylase Activity” value is “Low” and the “Enzymatic Detection level” value was “Low”.

B3: 93 (protein, listed as Mucilaginibacter paludis)
chain: MAKYGKHITINKNMRIVTLEEHISFPEMADQIPKAALGSFGRSEAMQRIAPKLADITGERLKSMDANGISMQVLSVDSSGVNLLSPQQGPAFATQYNDLIANRIAGFEKRFTAFAHLPMTAPFAAADELERAVKEHHFCGAMIRGLTGDQFLDHPQFAPIFERAQKLDVPIYLHPGLPPKGVADIYYSGLPNYSGMAEALACYGWGWHSETALHVLRLLFSGIFDQYPKLKLVIGHMGEMLPMMMARSEKAFKPGNGGANVRTLTDTFRSQVYLTTSGFFTQPPLKIALDTFGIDHVMFSVDYPFSTNEMGIEFLNEIDLPDEEVARIAHGNADKLLNLKA
For the molecule B3, the “Dicamba Decarboxylase Activity” value is “Low” and the “Enzymatic Detection level” value is on record as “Low”.

B4: 91 (protein, listed as Botryotinia fuckeliana)
chain: MASFVCNFGKAALATLLLTPSISAADYTPQETVLNSGRPTFYDASTSIPGKIALEEHVGNDLLNGLYTVPYYPNTNEPQYSDSVYIADVGEKMLDIPSRIANMDAANISISVLTFGGPGIQGVFNATYATYAAGYVNDYLYKNYKNNANYTGRFEFWCSNALQEPSKAATELERCVKELGGVGSFVGGYTNNGGINGTANDIVYLDDPSMEPFLEKVVELDVPIYLHPRMPAPSQLLSVKGYEFLGSSPWGFSSETGAHALRLMVSGTLDKYPTLKIVLGHCGEGLPFFLPRIDQRLRHFKKELFNNTLTMEEYWLRNFYVTTAGVQDAGTLVDTIKRTGEDRVMFSVDYPFEDTVEIAGWFDRLEMNTLTKTKLAYENAKALLKLTCYVDAEKRPRIFNKHHVDDIIKHTHSPCIWTLFH
For B4, the “Dicamba Decarboxylase Activity” value is given as “Low” and the “Enzymatic Detection level” value is given as “Low”.

B5: 94 (protein, listed as Bacillus thuringiensis)
chain: MANRGDSNMKSLVGVIMGSTSDWETMKYACDILDELNIPYEKKVVSAHRTPDYMFEYAETARERGLKVIIAGAGGAAHLPGMVAAKTNLPVIGVPVQSKALNGLDSLLSIVQMPGGVPVATVAIGKAGSTNAGLLAAQILGSFHDDIHDALELRREAIEKDVREGSELV
Regarding B5, the “Dicamba Decarboxylase Activity” value was “No” and the “Enzymatic Detection level” value is given as “No”.

B6: 86 (protein, listed as Sphingopyxis alaskensis)
chain: MALGASVASREASAQMAKAPMRKIATEEAFATPELAKAWLEIARSEPNSSLDIPTGILSIFDNPRPGSNQDRFRRQLLDVDAERIRDMDEAGVDMQLLSVTIPGVQIFEPARAGELAVTTNDHLAAAIARRPTRFAGLACFAPHDPVQATREMERAVNALGLKGFIVNSHTQDLYLDDPRFAPVLEAAQSLDCPIYLHPRAPSNGMAAPFRDYSMGGSIWGFGVEAGTHAVRMILSGVFDRYPRLRIVLGHMGEALPFWMWRLDHMAARRAKDGRMKPLSLAPSEYFKRNFAVTTSGFESPDVLDLVIKVAGIENIMWAIDYPYESSRDAVTFIEGADLTASQRASIFHRNAVRHFRLS
For the molecule B6, the “Dicamba Decarboxylase Activity” value was “Low” and the “Enzymatic Detection level” value is “Low”.

B7: 84 (protein, listed as Mycobacterium rhodesiae)
chain: MASLIALEEHYAWDPASEGNVVATWLRANNGVAYDRLYDRGPLRIEQMDAAGIDFQILSLFDPGVQDEVDAVRAVDLARRANDDLAESVRANPSRFGGFATLATQQPDAAVAEFDRAVTELGLVGGLINGHCQGRYLDDPAYEALFSRAEALGAPIYLHPTTPHPAVMDAWFAPYVGDGLHLASWGFAAETGTHVLRLIYSGLFDKFPRLQMIIGHLGEMLPFAAYRIDRYYGLGGGGTGHTLQHLPSDYLRNNFHVTTSGNFCSPALDCTLDVMGADRVMFSVDYPMDDNQTGADFLASYPMDDTNRRKVASENALRLFGDRIPAALRN
Turning to B7, the “Dicamba Decarboxylase Activity” value is “Low” and the “Enzymatic Detection level” value is listed as “Low”.

B8: 83 (protein, listed as Mycobacterium rhodesiae)
chain: MALIALEEHYAWSPVSAGNVVGSWLETHNVTAYQRLYDRGPLRLEQMDAAGIDFQILSLFDPGVQDDDDTARAVENARRANDDLAETVRAAPDRFGGFATLAPQDPDAAAAELERAVGELGLVGGLINGHTHGRYLDDPAYLGLFECAQRLGVPIYLHPTTPHPAVMDAWFAPYVKDGLHLASWGFAAETGTHALRLIYSGLFDTFPRLQMILGHLGEMLPYAAYRIDRYYGLGGGDDGGRLARLPSEYLRDNFHVTTSGNFNPVAFACALDVMGPDRLMFSVDYPMDDNVTGAEFLRNLEVDDDVRRKVAGENALQLFGDKIPRR
In the case of B8, the “Dicamba Decarboxylase Activity” value is “Low” and the “Enzymatic Detection level” value is “Low”.

B9: 90 (protein)
chain: MAATIDRVLYLGNATQRRYTSATVSVPRIFGKVALEEHVGTSIWAKYNLTPPANAVVGVLNRPPTLPNTLDTIARLDDINGRLSSMNHSGIGYVIVSLSSPGIQGVHDTALAIKFSTDINDELYLKYANAYPDKFAFFATVPMQDPVAAASELERAVSLLGAKGAAINGYTDIGPPGNSTTRYLDDPINAPFWSKVAALNVPIYLHPRAPPPSQQLVYNYPNNSLSAYPGLVTGGFAYGAETAVHALRLMLSGLFDTHPNIQIILGHAAEGLPFLIHRSDTQLAAEVPGTNGPYKRPLRYYLRNNFYATLSGVRRLSTTQCTLAEMGEERVLFSVDYPFQSNEDAADWFDGVEGMSVETKRKVARGNARRLFNLTVDLDERQIDGDFM
modifications: Pyrenophora tritici-repentis
With B9, the “Dicamba Decarboxylase Activity” value is given as “Low” and the “Enzymatic Detection level” value is “Low”.

B10: 82 (protein, listed as Rhodopseudomonas palustris)
chain: MAQNETPVIAIEEHYWDPEMVARFPAGENASPFSTLLTELGDVRLRAMDEAGIDVQVLSHGAPAAQKLPPDVAPELTRRVNDRLAEACARFPNRFAAFAALPTPAPEAAARELERCVRDLGFKGAMIHGLTNGLFIDDKRFWPIFEVAEKLDVPIYLHPSVPHADVTRYYYDDYAREFPTVIRPAWGFTVETATQAIRLILSRALESYPRLQIILGHLGETLPFLLWRINQALARPGQTPLDFRKQFCDHFHVTTSGFFSTPALICTMLELGIDRIMFAVDYPYVVNRDGTDWVQQLQISPDDKRKLVGGNARRLLKL
Turning to B10, the “Dicamba Decarboxylase Activity” value was “Low” and the “Enzymatic Detection level” value is listed as “Low”.
